Blank lines part the entries; values can stand above or below the binder they belong to. Numbered stars: 1 amine (or outer) side, 2 acyl side, 3 side chain; on linkers, the order of the positions; unused ones are H or OH. Bridge positions count the residues as written; N and C are the ends. Side chains are listed from the residue outwards. Ends that are not written are not given here. * marks the point of attachment. C20 diacid = O=C(O)CCCCCCCCCCCCCCCCCCC(=O)*; γGlu = O=C(O)[C@H](CCC(=O)[*:2])N[*:1]; AEEA = NCCOCCOCC(=O)O
Target: T1, human amylin 3(a) receptor (human calcitonin receptor co-expressed with RAMP-3) (human, UniProt P30988 25-474; O60896 24-148, limits assumed)
T1 sequence (looked up) 1: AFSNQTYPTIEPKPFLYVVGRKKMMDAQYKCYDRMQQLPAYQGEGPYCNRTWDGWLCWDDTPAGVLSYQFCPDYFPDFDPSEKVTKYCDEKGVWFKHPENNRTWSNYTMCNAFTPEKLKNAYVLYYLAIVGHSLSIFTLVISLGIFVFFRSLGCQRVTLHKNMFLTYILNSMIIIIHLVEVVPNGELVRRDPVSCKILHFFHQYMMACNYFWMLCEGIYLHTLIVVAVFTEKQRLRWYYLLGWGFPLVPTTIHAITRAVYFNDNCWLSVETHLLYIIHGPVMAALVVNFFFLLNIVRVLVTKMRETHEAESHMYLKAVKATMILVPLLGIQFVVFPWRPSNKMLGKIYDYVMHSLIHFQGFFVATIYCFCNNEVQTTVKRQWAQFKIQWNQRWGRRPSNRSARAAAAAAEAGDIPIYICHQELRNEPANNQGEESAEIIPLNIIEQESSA
T1 sequence (looked up) 2: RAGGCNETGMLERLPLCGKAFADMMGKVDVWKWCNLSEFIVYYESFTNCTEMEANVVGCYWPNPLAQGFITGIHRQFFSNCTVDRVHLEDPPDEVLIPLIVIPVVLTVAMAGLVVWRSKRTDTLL
Assay: cell-based or functional assay

Ratio hCT/hAmylin funct. (hCTR EC50 over hAmylin-R EC50): 24.8
hAmylin-R funct. EC50 (pM): 297 pM
B1: N^ε1-[2-[2-[2-[[(4S)-4-carboxy-4-(19-carboxynonadecanoylamino)butanoyl]amino]ethoxy]ethoxy]acetyl]-[Arg17,Pro21,Pro27,His34]-h-amylin (peptide)
peptide: K([AEEA-γGlu-C20 diacid])CNTATCATQRLANFLRHSSPNFGAIPSSTNVGHNTY-NH2
modifications: disulfide 2-7; N-terminus assumed
SMILES: CC[C@H](C)[C@H](NC(=O)[C@H](C)NC(=O)CNC(=O)[C@H](Cc1ccccc1)NC(=O)[C@H](CC(N)=O)NC(=O)[C@@H]1CCCN1C(=O)[C@H](CO)NC(=O)[C@H](CO)NC(=O)[C@H](Cc1c[nH]cn1)NC(=O)[C@H](CCCNC(=N)N)NC(=O)[C@H](CC(C)C)NC(=O)[C@H](Cc1ccccc1)NC(=O)[C@H](CC(N)=O)NC(=O)[C@H](C)NC(=O)[C@H](CC(C)C)NC(=O)[C@H](CCCNC(=N)N)NC(=O)[C@H](CCC(N)=O)NC(=O)[C@@H](NC(=O)[C@H](C)NC(=O)[C@@H]1CSSC[C@H](NC(=O)[C@@H](N)CCCCNC(=O)COCCOCCNC(=O)CC[C@H](NC(=O)CCCCCCCCCCCCCCCCCCC(=O)O)C(=O)O)C(=O)N[C@@H](CC(N)=O)C(=O)N[C@@H]([C@@H](C)O)C(=O)N[C@@H](C)C(=O)N[C@@H]([C@@H](C)O)C(=O)N1)[C@@H](C)O)C(=O)N1CCC[C@H]1C(=O)N[C@@H](CO)C(=O)N[C@@H](CO)C(=O)N[C@H](C(=O)N[C@@H](CC(N)=O)C(=O)N[C@H](C(=O)NCC(=O)N[C@@H](Cc1c[nH]cn1)C(=O)N[C@@H](CC(N)=O)C(=O)N[C@H](C(=O)N[C@@H](Cc1ccc(O)cc1)C(N)=O)[C@@H](C)O)C(C)C)[C@@H](C)O
notes: also called compound 76

Ratio hCT/hAmylin funct. (hCTR EC50 over hAmylin-R EC50): 21.9
hAmylin-R funct. EC50 (pM): 47 pM
B2: N^ε1-[2-[2-[2-[[(4S)-4-carboxy-4-(19-carboxynonadecanoylamino)butanoyl]amino]ethoxy]ethoxy]acetyl]-[Arg17,Pro21,Pro27,Pro34,His35]-h-amylin (peptide)
peptide: K([AEEA-γGlu-C20 diacid])CNTATCATQRLANFLRHSSPNFGAIPSSTNVGPHTY-NH2
modifications: disulfide 2-7; N-terminus assumed
SMILES: CC[C@H](C)[C@H](NC(=O)[C@H](C)NC(=O)CNC(=O)[C@H](Cc1ccccc1)NC(=O)[C@H](CC(N)=O)NC(=O)[C@@H]1CCCN1C(=O)[C@H](CO)NC(=O)[C@H](CO)NC(=O)[C@H](Cc1c[nH]cn1)NC(=O)[C@H](CCCNC(=N)N)NC(=O)[C@H](CC(C)C)NC(=O)[C@H](Cc1ccccc1)NC(=O)[C@H](CC(N)=O)NC(=O)[C@H](C)NC(=O)[C@H](CC(C)C)NC(=O)[C@H](CCCNC(=N)N)NC(=O)[C@H](CCC(N)=O)NC(=O)[C@@H](NC(=O)[C@H](C)NC(=O)[C@@H]1CSSC[C@H](NC(=O)[C@@H](N)CCCCNC(=O)COCCOCCNC(=O)CC[C@H](NC(=O)CCCCCCCCCCCCCCCCCCC(=O)O)C(=O)O)C(=O)N[C@@H](CC(N)=O)C(=O)N[C@@H]([C@@H](C)O)C(=O)N[C@@H](C)C(=O)N[C@@H]([C@@H](C)O)C(=O)N1)[C@@H](C)O)C(=O)N1CCC[C@H]1C(=O)N[C@@H](CO)C(=O)N[C@@H](CO)C(=O)N[C@H](C(=O)N[C@@H](CC(N)=O)C(=O)N[C@H](C(=O)NCC(=O)N1CCC[C@H]1C(=O)N[C@@H](Cc1c[nH]cn1)C(=O)N[C@H](C(=O)N[C@@H](Cc1ccc(O)cc1)C(N)=O)[C@@H](C)O)C(C)C)[C@@H](C)O
notes: also called compound 58

Ratio hCT/hAmylin funct. (hCTR EC50 over hAmylin-R EC50): 35
hAmylin-R funct. EC50 (pM): 89 pM
B3: N^ε1-[2-[2-[2-[[(4S)-4-carboxy-4-(19-carboxynonadecanoylamino)butanoyl]amino]ethoxy]ethoxy]acetyl]-[Arg17,Pro21,Pro27,Pro31,His35]-h-amylin (peptide)
peptide: K([AEEA-γGlu-C20 diacid])CNTATCATQRLANFLRHSSPNFGAIPSSTPVGSHTY-NH2
modifications: disulfide 2-7; N-terminus assumed
SMILES: CC[C@H](C)[C@H](NC(=O)[C@H](C)NC(=O)CNC(=O)[C@H](Cc1ccccc1)NC(=O)[C@H](CC(N)=O)NC(=O)[C@@H]1CCCN1C(=O)[C@H](CO)NC(=O)[C@H](CO)NC(=O)[C@H](Cc1c[nH]cn1)NC(=O)[C@H](CCCNC(=N)N)NC(=O)[C@H](CC(C)C)NC(=O)[C@H](Cc1ccccc1)NC(=O)[C@H](CC(N)=O)NC(=O)[C@H](C)NC(=O)[C@H](CC(C)C)NC(=O)[C@H](CCCNC(=N)N)NC(=O)[C@H](CCC(N)=O)NC(=O)[C@@H](NC(=O)[C@H](C)NC(=O)[C@@H]1CSSC[C@H](NC(=O)[C@@H](N)CCCCNC(=O)COCCOCCNC(=O)CC[C@H](NC(=O)CCCCCCCCCCCCCCCCCCC(=O)O)C(=O)O)C(=O)N[C@@H](CC(N)=O)C(=O)N[C@@H]([C@@H](C)O)C(=O)N[C@@H](C)C(=O)N[C@@H]([C@@H](C)O)C(=O)N1)[C@@H](C)O)C(=O)N1CCC[C@H]1C(=O)N[C@@H](CO)C(=O)N[C@@H](CO)C(=O)N[C@H](C(=O)N1CCC[C@H]1C(=O)N[C@H](C(=O)NCC(=O)N[C@@H](CO)C(=O)N[C@@H](Cc1c[nH]cn1)C(=O)N[C@H](C(=O)N[C@@H](Cc1ccc(O)cc1)C(N)=O)[C@@H](C)O)C(C)C)[C@@H](C)O
notes: also called compound 57

Ratio hCT/hAmylin funct. (hCTR EC50 over hAmylin-R EC50): 17.4
hAmylin-R funct. EC50 (pM): 38 pM
B4: N^ε1-[2-[2-[2-[[(4S)-4-carboxy-4-(19-carboxynonadecanoylamino)butanoyl]amino]ethoxy]ethoxy]acetyl]-[Arg17,Pro21,Pro27,Pro34]-h-amylin (peptide)
peptide: K([AEEA-γGlu-C20 diacid])CNTATCATQRLANFLRHSSPNFGAIPSSTNVGPNTY-NH2
modifications: disulfide 2-7; N-terminus assumed
SMILES: CC[C@H](C)[C@H](NC(=O)[C@H](C)NC(=O)CNC(=O)[C@H](Cc1ccccc1)NC(=O)[C@H](CC(N)=O)NC(=O)[C@@H]1CCCN1C(=O)[C@H](CO)NC(=O)[C@H](CO)NC(=O)[C@H](Cc1c[nH]cn1)NC(=O)[C@H](CCCNC(=N)N)NC(=O)[C@H](CC(C)C)NC(=O)[C@H](Cc1ccccc1)NC(=O)[C@H](CC(N)=O)NC(=O)[C@H](C)NC(=O)[C@H](CC(C)C)NC(=O)[C@H](CCCNC(=N)N)NC(=O)[C@H](CCC(N)=O)NC(=O)[C@@H](NC(=O)[C@H](C)NC(=O)[C@@H]1CSSC[C@H](NC(=O)[C@@H](N)CCCCNC(=O)COCCOCCNC(=O)CC[C@H](NC(=O)CCCCCCCCCCCCCCCCCCC(=O)O)C(=O)O)C(=O)N[C@@H](CC(N)=O)C(=O)N[C@@H]([C@@H](C)O)C(=O)N[C@@H](C)C(=O)N[C@@H]([C@@H](C)O)C(=O)N1)[C@@H](C)O)C(=O)N1CCC[C@H]1C(=O)N[C@@H](CO)C(=O)N[C@@H](CO)C(=O)N[C@H](C(=O)N[C@@H](CC(N)=O)C(=O)N[C@H](C(=O)NCC(=O)N1CCC[C@H]1C(=O)N[C@@H](CC(N)=O)C(=O)N[C@H](C(=O)N[C@@H](Cc1ccc(O)cc1)C(N)=O)[C@@H](C)O)C(C)C)[C@@H](C)O
notes: also called compound 50

Ratio hCT/hAmylin funct. (hCTR EC50 over hAmylin-R EC50): 10.8
hAmylin-R funct. EC50 (pM): 68 pM
B5: N^ε1-[2-[2-[2-[[(4S)-4-carboxy-4-(19-carboxynonadecanoylamino)butanoyl]amino]ethoxy]ethoxy]acetyl]-[Arg17,Pro21,Pro27,Pro28,Pro34]-h-amylin (peptide)
peptide: K([AEEA-γGlu-C20 diacid])CNTATCATQRLANFLRHSSPNFGAIPPSTNVGPNTY-NH2
modifications: disulfide 2-7; N-terminus assumed
SMILES: CC[C@H](C)[C@H](NC(=O)[C@H](C)NC(=O)CNC(=O)[C@H](Cc1ccccc1)NC(=O)[C@H](CC(N)=O)NC(=O)[C@@H]1CCCN1C(=O)[C@H](CO)NC(=O)[C@H](CO)NC(=O)[C@H](Cc1c[nH]cn1)NC(=O)[C@H](CCCNC(=N)N)NC(=O)[C@H](CC(C)C)NC(=O)[C@H](Cc1ccccc1)NC(=O)[C@H](CC(N)=O)NC(=O)[C@H](C)NC(=O)[C@H](CC(C)C)NC(=O)[C@H](CCCNC(=N)N)NC(=O)[C@H](CCC(N)=O)NC(=O)[C@@H](NC(=O)[C@H](C)NC(=O)[C@@H]1CSSC[C@H](NC(=O)[C@@H](N)CCCCNC(=O)COCCOCCNC(=O)CC[C@H](NC(=O)CCCCCCCCCCCCCCCCCCC(=O)O)C(=O)O)C(=O)N[C@@H](CC(N)=O)C(=O)N[C@@H]([C@@H](C)O)C(=O)N[C@@H](C)C(=O)N[C@@H]([C@@H](C)O)C(=O)N1)[C@@H](C)O)C(=O)N1CCC[C@H]1C(=O)N1CCC[C@H]1C(=O)N[C@@H](CO)C(=O)N[C@H](C(=O)N[C@@H](CC(N)=O)C(=O)N[C@H](C(=O)NCC(=O)N1CCC[C@H]1C(=O)N[C@@H](CC(N)=O)C(=O)N[C@H](C(=O)N[C@@H](Cc1ccc(O)cc1)C(N)=O)[C@@H](C)O)C(C)C)[C@@H](C)O
notes: also called compound 55

Ratio hCT/hAmylin funct. (hCTR EC50 over hAmylin-R EC50): 22.5
hAmylin-R funct. EC50 (pM): 106 pM
B6: N^ε1-[2-[2-[2-[[(4S)-4-carboxy-4-(19-carboxynonadecanoylamino)butanoyl]amino]ethoxy]ethoxy]acetyl]-[Arg17,Pro21,Pro27,Pro31]-h-amylin (peptide)
peptide: K([AEEA-γGlu-C20 diacid])CNTATCATQRLANFLRHSSPNFGAIPSSTPVGSNTY-NH2
modifications: disulfide 2-7; N-terminus assumed
SMILES: CC[C@H](C)[C@H](NC(=O)[C@H](C)NC(=O)CNC(=O)[C@H](Cc1ccccc1)NC(=O)[C@H](CC(N)=O)NC(=O)[C@@H]1CCCN1C(=O)[C@H](CO)NC(=O)[C@H](CO)NC(=O)[C@H](Cc1c[nH]cn1)NC(=O)[C@H](CCCNC(=N)N)NC(=O)[C@H](CC(C)C)NC(=O)[C@H](Cc1ccccc1)NC(=O)[C@H](CC(N)=O)NC(=O)[C@H](C)NC(=O)[C@H](CC(C)C)NC(=O)[C@H](CCCNC(=N)N)NC(=O)[C@H](CCC(N)=O)NC(=O)[C@@H](NC(=O)[C@H](C)NC(=O)[C@@H]1CSSC[C@H](NC(=O)[C@@H](N)CCCCNC(=O)COCCOCCNC(=O)CC[C@H](NC(=O)CCCCCCCCCCCCCCCCCCC(=O)O)C(=O)O)C(=O)N[C@@H](CC(N)=O)C(=O)N[C@@H]([C@@H](C)O)C(=O)N[C@@H](C)C(=O)N[C@@H]([C@@H](C)O)C(=O)N1)[C@@H](C)O)C(=O)N1CCC[C@H]1C(=O)N[C@@H](CO)C(=O)N[C@@H](CO)C(=O)N[C@H](C(=O)N1CCC[C@H]1C(=O)N[C@H](C(=O)NCC(=O)N[C@@H](CO)C(=O)N[C@@H](CC(N)=O)C(=O)N[C@H](C(=O)N[C@@H](Cc1ccc(O)cc1)C(N)=O)[C@@H](C)O)C(C)C)[C@@H](C)O
notes: also called compound 49
